The record followed here is patent publication US20210292393A1.

Holding throughout (settings): remark: other sources report otherwise
Test [1] addresses SARS-CoV-2 full length spike protein, V483A mutant, expressed on the surface of CHO cells (SARS-CoV-2), P0DTC2.
Test [2] addresses SARS-CoV-2 full length spike protein, D614G mutant (SARS-CoV-2), P0DTC2.
Test [3] deals with SARS-CoV-2 full length spike protein, V367F mutant (SARS-CoV-2), P0DTC2.
Test [4] has as its target SARS-CoV-2 full length spike protein, V483A mutant (SARS-CoV-2), P0DTC2.
In test [5] the target is SARS-CoV-2 full length spike protein, D614G mutant, expressed on CHO cells (SARS-CoV-2), P0DTC2.
Test [6] deals with SARS-CoV-2 full length spike protein, V367F mutant, expressed on CHO cells (SARS-CoV-2), P0DTC2.
For test [7], the target named is SARS-CoV-2 full length spike protein, V483A mutant, expressed on CHO cells (SARS-CoV-2), P0DTC2.

Substitutions are numbered along the chain they refer to. Values joined by “and” are separate entries in the source; they are usually repeats but may differ in a detail not shown here. Equal entries are not always repeated.

B1: antibody 315 (antibody, V domains shown)
VH: QVQLVQSGSELKKPGASVKLSCQASGYSFTNHAMNWVRQAPGQGLEWMGWINTNTGNPTYAQGFTGRFVFSLDTSVSTTYLHISSLKAEDTAVYYCARASARPGVATNLDFWGQGTLVVVSS
VL: DIQMTQSPSSLSASVGDRVTITCRASQNIDNYLNWYQQKPGKAPKLLIYAASRLHSGVPSRFSGSGSGTDFTLIISSLQPEDLATYYCQQSYSNPLTFGPGTKVDIR
In the case of B1, the median fluorescence intensity, fold over isotype control (fold over isotype) in test [1] was found to be 8.39.

B2: antibody 322 (antibody, V domains shown)
VH: EVQLVESGGGLVQPGGSLRLSCAASGFTFSSYWMSWVRQAPGKGLEWVANIKQDGSEKYYVDSVKGRFTISRDNAKNSLYLQMNSLRAEDTAVYYCARDEDVAAALDYWGQGTLVTVSS
VL: SYVLTQPPSVSVAPGKTARITCGGNNIGSKSVHWYQQKPGQAPVLVIYYDSDRPSGIPERFSGSNSGNTATLTISRVEAGDEADYYCQVWDSSSDHPERVFGGGTKLTVL
As for B2, the median fluorescence intensity, fold over isotype control (fold over isotype) in test [1] was 4.95.

B3: antibody 521 (antibody, V domains shown)
VH: QVQLVESGGGVVQPGRSLRLSCAASGFTFSSYGMHWVRQAPGKGLEWVAVIWYDGSNKYYADSVKGRFTISRDNSKNTLYLQMNSLRAEDTAVYYCAREGNDYGDYGEWELLGYFDYWGQGTLVTVSS
VL: SYELTQPPSVSVSPGQTARITCSGDALPKKYAYWYQQKSGQAPVLVIYEDSKRPSGIPERFSGSSSGTMATLTISGAQVEDEADYYCYSTDSSGNHRRVFGGGTKLTVL
For B3, the median fold over isotype (fold over isotype) in test [2] was 2.68; in test [3], 1.68; in test [4], 2.72 and 5.78.

B4: antibody 499 (antibody, V domains shown)
VH: EVQLVESGGGLVKPGGSLRLSCAASGFTFSSYSMNWVRQAPGKGLEWVSSISSSSSYIYYADSVKGRFTISRDNAKNSLYLQMNSLRAEDTAVYYCARAPAGIVVGPDYWGQGTLVTVSS
VL: NFMLTQPHSVSESPGKTVTISCTGSSGSIASNYVQWYQQRPGSAPTTVIFEDNQRPSGVPDRFSGSIDSSSNSASLTISGLKTEDEADYYCQSYHSSNPHVVFGGGTKLTVL
In the case of B4, the median fluorescence intensity, fold over isotype control (fold over isotype) is 4.3 in test [5]; 1.18 in test [6]; 4.39 and 2.6 in test [7].

B5: antibody 325 (antibody, V domains shown)
VH: QVQLQESGPGLVKPSQTLSLTCTVSGGSISGGGYYWSWIRQHPGKGLEWIGYIYYSGSTYYNPSLQSRVTISVDTSKNQFSLKLSSVTAADTAVYYCARVGTSSVWYFDYWGQGTLVTVSS
VL: QSALTQPRSVSGSPGQSVTISCTGTSSDVGGYNYVSWYQQHPGKAPKLMIYDVTKRPSGVPDRFSGSKSGNTASLTISGLQAEDEADYYCSSYAGSWVFGGGTKLTVL
Consider B5, for which, in test [1], the median fluorescence intensity, fold over isotype control (fold over isotype) amounted to 1.17.

B6: antibody 362 (antibody, V domains shown)
VH: QVQLVESGGGVVQPGRSLRLSCAASGFNLSNYAMHWVRQASGKGLEWVSLISYDGSVKYYTDSVKGRFTVSGDNSKNTLFLQMNSLRPDDSALYYCVRGGVSGPNSFDMWGQGTTVTVSS
VL: DVVMTQSPLSLPVTLGQPATISCRSSQSLVYSDGNTYVNWFQQRPGQSPRRLIYQVSIRASGVPDRFSGSGSGTDFALKISRVEAEDVGVYYCMQGTHWPVTFGQGTKVEIK
With B6, in test [1], the median fluorescence intensity, fold over isotype control (fold over isotype) worked out at 10.3.

B7: antibody 495 (antibody, V domains shown)
VH: QITLKESGPTLVKPTQTLTLTCTFSGFSLSTSGVGVGWIRQPPGKALEWLALIYWDDDKRYSPSLKSRLTITKDTSKNQVVLIMTNMDPVDTATYYCAHRDSSSWFDLDAFDIWGQGTMVIVSS
VL: QSVLTQPPSVSEAPRQRVTISCSGSSSNIGNNAVNWYQQLPGKAPKLLIYYDDLLPSGVSDRFSGSKSGTSASLAISGLQSEDEADYYCAAWDDRLNGPVFGGGTKLTVL
As to B7, the median fluorescence intensity, fold over isotype control (fold over isotype) was 1.43 in test [5]; 3.82 in test [6]; 3.47 and 1.65 in test [7].

B8: antibody 269 (antibody, V domains shown)
VH: QLQLQESGPGLVKPSETLSLTCTVSGGSISSSSYYWGWIRQPPGKGLEWIGNIYYSGSTYYNPSLKSRVTISVDTSKNQFSLKLSSVTAADTAVYYCAGEELDIVATIYSSRYYYYGMDVWGQGTTVTVSS
VL: QSALTQPASVSGSPGQSITISCTGTSSDVGGYNYVSWYQQHPGKAPKLMIYEVSNRPSGVSNRFSGSKSGNTASLTISGLQAEDEADYYCSSYTSTSTLVFGGGTKLTVL
Regarding B8, the median fluorescence intensity, fold over isotype control (fold over isotype) was 25.4 in test [3]; 22.8 and 11.6 in test [4].

B9: antibody 279 (antibody, V domains shown)
VH: EVQLLESGGGLVQPGGSLRLSCAASGFTFSSYAMSWVRQAPGKGLEWVSTISGSGGNTYYADSVKGRFTISRDNSKNTLYLQMNSLRAEDTAVYYCAKDLFQGLYYGSGEFDYWGQGTLVTVSS
VL: B8 VL with G31A, E52G, T96S, L99R, G103T, L107V
As to B9, the median fluorescence intensity, fold over isotype control (fold over isotype) in test [3] was 13.4; in test [4] it was 11.8 and 8.2.
